Source: patent publication US20250034594A1, “RNA-GUIDED GENOME RECOMBINEERING AT KILOBASE SCALE” (THE BOARD OF TRUSTEES OF THE LELAND STANFORD JUNIOR …, priority 2021, published 2025)

B1: Homolog_E1: RecE, Pantoea stewartii; SEQ ID NO: 116 (protein, listed as Pantoea stewartii)
chain: MQPGVYYDISNEEYHAGPGISKSQLDDIAVSPAIFQWRKSAPVDDEKTAALDLGTALHCLLLEPDEFSKRFMIGPEVNRRTNAGKQKEQDFLDMCEQQGITPITHDDNRKLRLMRDSAFAHPVARWMLETEGKAEASIYWNDRDTQILSRCRPDKLITEFSWCVDVKSTADIGKFQKDFYSYRYHVQDAFYSDGYEAQFCEVPTFAFLVVSSSIDCGRYPVQVFIMDQQAKDAGRAEYKRNLTTYAECQARNEWPGIATLSLPYWAKEIRNV
B2: Homolog_T2: RecT, Pantoea brenneri; SEQ ID NO: 117 (protein, listed as Pantoea brenneri)
chain: MSNQPPIASADLQKTQQSKQVANKTPEQTLVGFMNQPAMKSQLAAALPRHMTADRMIRIVTTEIRKTPQLAQCDQSSFIGAVVQCSQLGLEPGSALGHAYLLPFGNGRSKSGQSNVQLIIGYRGMIDLARRSGQIVSLSARVVRADDEFSFEYGLDENLVHRPGENEDAPITHVYAVARLKDGGTQFEVMTVKQVEKVKAQSKASSNGPWVTHWEEMAKKTVIRRLFKYLPVSIEMQKAVVLDEKAESDVDQDNASVLSAEYSVLESGDEATN
B3: Homolog_E2: RecE, Pantoea brenneri; SEQ ID NO: 118 (protein, listed as Pantoea brenneri)
chain: MQPGIYYDISNEDYHRGAGISKSQLDDIAISPAIYQWRKHAPVDEEKTAALDLGTALHCLLLEPDEFSKRFQIGPEVNRRTTAGKEKEKEFIERCEAEGITPITHDDNRKLKLMRDSALAHPIARWMLEAQGNAEASIYWNDRDAGVLSRCRPDKIITEFNWCVDVKSTADIMKFQKDFYSYRYHVQDAFYSDGYESHFHETPTFAFLAVSTSIDCGRYPVQVFIMDQQAKDAGRAEYKRNIHTFAECLSRNEWPGIATLSLPFWAKELRNE
B4: Homolog_T3: RecT, Pantoea dispersa; SEQ ID NO: 119 (protein, listed as Pantoea dispersa)
chain: MSNQPPLATADLQKTQQSNQVAKTPEQTLVGFMNQPAMKSQLAAALPRHMTADRMIRIVTTEIRKTPALAQCDQSSFIGAVVQCSQLGLEPGSALGHAYLLPFGNGRSKSGQSNVQLIIGYRGMIDLARRSGQIVSLSARVVRADDEFSFEYGLDENLIHRPGDNESAPITHVYAVARLKDGGTQFEVMTAKQVEKVKAQSKASSNGPWVTHWEEMAKKTVIRRLFKYLPVSIEMQKAVVLDEKAESDVDQDNASVLSAEYSVLESGTGE
B5: Homolog_E3: RecE, Pantoea dispersa; SEQ ID NO: 120 (protein, listed as Pantoea dispersa)
chain: MEPGIYYDISNEAYHSGPGISKSQLDDIARSPAIFQWRKDAPVDTEKTKALDLGTDFHCAVLEPERFADMYRVGPEVNRRTTAGKAEEKEFFEKCEKDGAVPITHDDARKVELMRGSVMAHPIAKQMIAAQGHAEASIYWHDESTGNLCRCRPDKFIPDWNWIVDVKTTADMKKFRREFYDLRYHVQDAFYTDGYAAQFGERPTFVFVVTSTTIDCGRYPTEVFFLDEETKAAGRSEYQSNLVTYSECLSRNEWPGIATLSLPHWAKELRNV
B6: Homolog_T4: RecT, Type-F symbiont of Plautia stali; SEQ ID NO: 121 (protein)
chain: MSNQPPIASADLQKTQQSKQVANKTPEQTLVGFMNQPAMKSQLAAALPRHMTADRMIRIVTTEIRKTPALATCDQSSFIGAVVQCSQLGLEPGSALGHAYLLPFGNGRSKSGQSNVQLIIGYRGMIDLARRSGQIVSLSARVVRADDEFSFEYGLDENLIHRPGDNEDAPITHVYAVARLKDGGTQFEVMTAKQVEKVKAQSKASSNGPWVTHWEEMAKKTVIRRLFKYLPVSIEMQKAVVLDEKAESDVDQDNASVLSAEYSVLEGDGGE
modifications: Type-F symbiont of Plautia stali
B7: Homolog_E4: RecE, Type-F symbiont of Plautia stali; SEQ ID NO: 122 (protein)
chain: MQPGIYYDISNEDYHGGPGISKSQLDDIAISPAIYQWRKHAPVDEEKTAALDLGTALHCLLLEPDEFSKRFEIGPEVNRRTTAGKEKEKEFMERCEAEGVTPITHDDNRKLRLMRDSAMAHPIARWMLEAQGNAEASIYWNDRDTGVLSRCRPDKIITDFNWCVDVKSTADIIKFQKDFYSYRYHVQDAFYSDGYESHFDETPTFAFLAVSTSIDCGRYPVQVFIMDQQAKDAGRAEYKRNIHTFAECLSRNEWPGIATLSLPYWAKELRNE
modifications: Type-F symbiont of Plautia stali
B8: Homolog_T5: RecT, Providencia stuartii; SEQ ID NO: 123 (protein, listed as Providencia stuartii)
chain: MSNPPLAQADLQKTQGTEVKEKTKDQMLVELINKPSMKAQLAAALPRHMTPDRMIRIVTTEIRKTPALATCDMQSFVGAVVQCSQLGLEPGNALGHAYLLPFGNGKSKSGQSNVQLIIGYRGMIDLARRSGQIVSISARTVRQGDNFHFEYGLNENLTHVPGENEDSPITHVYAVARLKDGGVQFEVMTYNQIEKVRASSKAGQNGPWVSHWEEMAKKTVIRRLFKYLPVSIEMQKAVILDEKAEANIDQENATIFEGEYEEVGTDGK
B9: Homolog_E5: RecE, Providencia stuartii; SEQ ID NO: 124 (protein, listed as Providencia stuartii)
chain: EGIYYNISNEDYHNGLGISKSQLDLINEMPAEYIWSKEAPVDEEKIKPLEIGTALHCLLLEPDEYHKRYKIGPDVNRRTNAGKEKEKEFFDMCEKEGITPITHDDNRKLMIMRDSALAHPIAKWCLEADGVSESSIYWTDKETDVLCRCRPDRIITAHNYIVDVKSSGDIEKFDYEYYNYRYHVQDAFYSDGYKEVTGITPTFLFLVVSTKIDCGKYPVRTYVMSEEAKSAGRTAYKHNLLTYAECLKTDEWAGIRTLSLPRWAKELRNE
B10: Homolog_T6: RecT, Providencia sp. MGF014; SEQ ID NO: 125 (protein, listed as Providencia sp.)
chain: MSNPPLAQSDLQKTQGTEVKVKTKDQQLIQFINQPSMKAQLAAALPRHMTPDRMIRIVTTEIRKTPALATCDMQSFVGAVVQCSQLGLEPGNALGHAYLLPFGNGKAKSGQSNVQLIIGYRGMIDLARRSNQIISISARTVRQGDNFHFEYGLNEDLTHTPSENEDSPITHVYAVARLKDGGVQFEVMTYNQVEKVRASSKAGQNGPWVSHWEEMAKKTVIRRLFKYLPVSIEMQKAVVLDEKAEANVDQENATIFEGEYEEVGTDGN
B11: Homolog_E6: RecE, Providencia sp. MGF014; SEQ ID NO: 126 (protein, listed as Providencia sp.)
chain: MKEGIYYNISNEDYHNGLGISKSQLDLINEMPAEYIWSKEAPVDEEKIKPLEIGTALHCLLLEPDEYHKRYKIGPDVNRRTNVGKEKEKEFFDMCEKEGITPITHDDNRKLMIMRDSALAHPIAKWCLEADGVSESSIYWTDKETDVLCRCRPDRIITAHNYIIDVKSSGDIEKFDYEYYNYRYHVQDAFYSDGYKEVTGITPTFLFLVVSTKIDCGKYPVRTYVMSEEAKSAGRTAYKHNLLTYAECLKTDEWAGIRTLSLPRWAKELRNE

Test system: DYNLT1 locus
Experiment: mKate knock-in gene-editing assay, RecE/RecT homologs, DYNLT1 locus
Format: cell-based, human
Details: HEK293 cells, MCP fusion, n=3
Procedure: (§1) Transfection HEK293T cells were seeded into 96-well plates (Corning) 12-24 hours prior to transfection at a density of 30,000 cells/well, and 250 ng of total DNA was transfected per well. HeLa and HepG2 cells were seeded into 48-well plates (Corning) one day prior to transfection at a density of 50,000 and 30,000 cells/well respectively, and 400 ng of total DNA was transfected per well. Transfections were performed with Lipofectamine 3000 (Life Technologies) following the manufacturer's instructions.
(§2) Fluorescence-activated cell sorting (FACS) mKate knock-in efficiency was analyzed on a CytoFLEX flow cytometer (Beckman Coulter; Stanford Stem Cell FACS Core). 72 hours after transfection, cells were washed once with PBS and dissociated with TrypLE Express Enzyme (Thermo Fisher Scientific). Cell suspension was then transferred to a 96-well U-bottom plate (Thermo Fisher Scientific) and centrifuged at 300×G for 5 minutes. After removing the supernatant, pelleted cells were resuspended with 50 μl 4% FBS in PBS, and cells were sorted within 30 minutes of preparation.
(§3) 15 different species of microbes having RecE/RecT proteins were selected for a screen of various RecE and RecT proteins across the microbial kingdom (Table 3). Each protein was codon-optimized and synthesized. As previously described for E. coli RecE/RecT based REDIT systems, each protein was fused via E-XTEN linker to the MCP protein with additional nuclear localization signal. mKate knock-in gene-editing assay was used to measure efficiencies at DYNLT1 locus (FIG. 26A, Table 4) and HSP90AA1 locus (FIG. 26B, Table 4).

Molecule	Mean mKate+ (%), DYNLT1
B1	5.7333%
B2	12.0000%
B3	7.4533%
B4	11.9000%
B5	2.0533%
B6	10.4433%
B7	5.7200%
B8	10.8267%
B9	4.4667%
B10	9.0533%
B11	5.4100%

Test system: HSP90AA1 locus
Experiment: mKate knock-in gene-editing assay, RecE/RecT homologs, HSP90AA1 locus
Format: cell-based, human
Details: HEK293 cells, MCP fusion, n=3
Procedure: as §1, §2, §3

Molecule	Mean mKate+ (%), HSP90AA1
B1	7.6567%
B2	6.9233%
B3	6.4867%
B4	7.1200%
B5	6.7467%
B6	5.7567%
B7	6.2567%
B8	6.4300%
B9	6.0233%
B10	6.2500%
B11	5.9300%
